This experiment addresses T1, OST1/SnRK2.6 (Arabidopsis thaliana, UniProt Q940H6).
T1 construct: made in house; host or cells: E. coli
T1 sequence (Q940H6 1-362): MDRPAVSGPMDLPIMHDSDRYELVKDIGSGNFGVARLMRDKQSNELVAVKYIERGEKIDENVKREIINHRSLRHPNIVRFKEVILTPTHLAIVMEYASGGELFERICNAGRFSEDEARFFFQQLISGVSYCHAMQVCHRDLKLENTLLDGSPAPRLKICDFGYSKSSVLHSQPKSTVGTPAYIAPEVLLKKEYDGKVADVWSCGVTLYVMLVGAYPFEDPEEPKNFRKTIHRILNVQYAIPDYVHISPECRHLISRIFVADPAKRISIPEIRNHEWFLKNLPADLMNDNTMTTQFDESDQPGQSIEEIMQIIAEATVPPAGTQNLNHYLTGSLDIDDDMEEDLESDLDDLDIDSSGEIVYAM
The experiment in a line: In vitro phosphorylation assay of CIAP-dephosphorylated GST-OST1/SnRK2.6 with other protein kinases. It counts as biochemical. The settings on record: GST-OST1/SnRK2.6 dephosphorylated by CIAP, [γ-32P]-ATP. How it is done: We investigated phosphorylation of purified recombinant GST-tagged OST1/SnRK2.6 protein kinase after dephosphorylation in vitro. To test whether OST1/SnRK2.6 could be re-activated by autophosphorylation, after dephosphorylation, the GST-OST1/SnRK2.6 protein bound on glutathione sepharose 4B resin was incubated with calf intestinal alkaline phosphatase (CIAP), and [γ-^32P]-ATP was added to the reaction after wash out of CIAP. […] Therefore, another unknown protein kinase may be required for reversible ABA signal transduction.
10 μg GST-OST1/SnRK2.6 proteins were bound to glutathione sepharose 4B beads and incubated with 30 U CIAP for 2 hr at room temperature. […]
a, Seeds of amiR-HsMYO wild-type (control line) or amiR-ax1117 mutant were sowed on ½ MS medium containing 2 μM ABA, or 0.02% EtOH as control, for germination assays. Representative images showing seed germination after 6 days. b, The percentage of seedlings showing green cotyledons was analyzed. […] In-gel kinase assays were performed using histone type III-S as a substrate. e, SnRK2 band intensities as shown in (d) were measured using ImageJ, n=3 experiments, error bars show +/−s.e.m. f, Recombinant GST-OST1/SnRK2.6 protein was dephosphorylated by alkaline phosphatase in vitro and used for in vitro phosphorylation assays after incubation with CPK6, CPK23 or MPK12 protein kinases. […]

B1: MPK12: MAP kinase of ABA signalling (protein)
chain: MSGESSSGSTEHCIKVVPTHGGRYVQYNVYGQLFEVSRKYVPPIRPIGRGACGIVCAAVNSVTGEKVAIKKIGNAFDNIIDAKRTLREIKLLRHMDHENVITIKDIVRPPQRDIFNDVYIVYELMDTDLQRILRSNQTLTSDQCRFLVYQLLRGLKYVHSANILHRDLRPSNVLLNSKNELKIGDFGLARTTSDTDFMTEYVVTRWYRAPELLLNCSEYTAAIDIWSVGCILGEIMTGQPLFPGKDYVHQLRLITELVGSPDNSSLGFLRSDNARRYVRQLPRYPKQQFAARFPKMPTTAIDLLERMLVFDPNRRISVDEALGHAYLSPHHDVAKEPVCSTPFSFDFEHPSCTEEHIKELIYKESVKFNPDH
As for B1, the “phosphorylation of OST1/SnRK2.6 after dephosphorylation” value is reported as “did not phosphorylate”.

B2: CPKδ: calcium-dependent protein kinase of ABA signalling (protein, UniProt Q38872 2-544, looked up)
Calcium-dependent protein …: GNSCRGSFKDKIYEGNHSRPEENSKSTTTTVSSVHSPTTDQDFSKQNTNPALVIPVKEPIMRRNVDNQSYYVLGHKTPNIRDLYTLSRKLGQGQFGTTYLCTDIATGVDYACKSISKRKLISKEDVEDVRREIQIMHHLAGHKNIVTIKGAYEDPLYVHIVMELCAGGELFDRIIHRGHYSERKAAELTKIIVGVVEACHSLGVMHRDLKPENFLLVNKDDDFSLKAIDFGLSVFFKPGQIFKDVVGSPYYVAPEVLLKHYGPEADVWTAGVILYILLSGVPPFWAETQQGIFDAVLKGYIDFDTDPWPVISDSAKDLIRKMLCSSPSERLTAHEVLRHPWICENGVAPDRALDPAVLSRLKQFSAMNKLKKMALKVIAESLSEEEIAGLRAMFEAMDTDNSGAITFDELKAGLRRYGSTLKDTEIRDLMEAADVDNSGTIDYSEFIAATIHLNKLEREEHLVSAFQYFDKDGSGYITIDELQQSCIEHGMTDVFLEDIIKEVDQDNDGRIDYEEFVAMMQKGNAGVGRRTMKNSLNISMRDV
Take B2: the “phosphorylation of OST1/SnRK2.6 after dephosphorylation” value was “did not phosphorylate”.

The record behind these values is patent US20220154204A1, “ENHANCING DROUGHT, SALINITY AND COLD TOLERANCE IN PLANTS AND TREES” (The Regents of the University of California, priority 2019, published 2022).
